From article PMC5383250

Tests used:
[1] = target: E. faecalis RNase J1 (Enterococcus faecalis (strain OG1RF)); assay: SPR; Biacore T100; E. faecalis RNase J1 immobilized on a CM5 sensor surface; J2 proteins 400 to 50 nM in duplicate; fitted to the 1:1 binding model
[2] = target: RNase J2 (Bacillus subtilis) (UniProt O31760); details: cited from earlier work

RNase J1, sequence (Q45493 whole entry): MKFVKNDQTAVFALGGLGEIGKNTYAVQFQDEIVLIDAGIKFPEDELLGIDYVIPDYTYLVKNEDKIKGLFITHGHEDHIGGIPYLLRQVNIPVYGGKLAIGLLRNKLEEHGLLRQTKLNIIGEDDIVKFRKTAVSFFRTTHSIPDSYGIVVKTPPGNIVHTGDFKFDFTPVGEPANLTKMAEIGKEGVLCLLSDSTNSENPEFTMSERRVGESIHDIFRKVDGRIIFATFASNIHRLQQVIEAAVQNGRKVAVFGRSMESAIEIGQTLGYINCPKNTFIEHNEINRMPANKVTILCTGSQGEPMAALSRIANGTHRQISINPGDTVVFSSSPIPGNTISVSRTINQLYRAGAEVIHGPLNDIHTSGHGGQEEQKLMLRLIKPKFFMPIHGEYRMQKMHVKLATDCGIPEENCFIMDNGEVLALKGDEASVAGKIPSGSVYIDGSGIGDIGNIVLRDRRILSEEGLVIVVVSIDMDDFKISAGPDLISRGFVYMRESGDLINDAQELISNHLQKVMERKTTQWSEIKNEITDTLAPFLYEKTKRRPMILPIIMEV

E. faecalis RNase J2 H69A (enzyme) gave a Kd [1] of 81 nM.

Work on E. faecalis RNase J2 H71A (enzyme) yielded a Kd [1] of 89 nM.

For RNase J1 (from UniProt Q45493), the Kd [2] is given as 80 nM.
